Results published in patent US20240165282A1, “CONFORMATIONAL CONSTRAINED SOMATOSTATIN RECEPTOR 3 PEPTIDE LIGANDS AND THEIR CONJUGATES AND USES THEREOF” (STARGET PHARMA LTD., priority 2021, published 2024).
*1 amine or outer side, *2 acyl side, *3 side chain or, on linkers, in order; H or OH if unused. Bridges are numbered along the chain shown (N, C = ends). [ ]: non-standard residue; d: D form. The star is where a group is joined. DOTA = O=C(O)CN1CCN(CC(=O)O)CCN(CC(=O)*)CCN(CC(=O)O)CC1; N(2-mercaptoethyl)Gly = O=C(CN(CCS[*:3])[*:1])[*:2]

What was measured:
Assay in all cases: cell-based or functional assay
[1] = target: (CR)L-RAMP1 (human) (UniProt Q16602)
[2] = target: (CR)L-RAMP2 (human) (UniProt Q16602)
[3] = target: (CR)L-RAMP3 (human) (UniProt Q16602)
[4] = target: (CR)R-RAMP2 (human) (UniProt P30988)
[5] = target: ADRA2B (human) (UniProt P18089)
[6] = target: ADRA2C (human) (UniProt P18825)
[7] = target: ADRB1 (human) (UniProt P08588)
ADRB1 (human), sequence (P08588 whole entry): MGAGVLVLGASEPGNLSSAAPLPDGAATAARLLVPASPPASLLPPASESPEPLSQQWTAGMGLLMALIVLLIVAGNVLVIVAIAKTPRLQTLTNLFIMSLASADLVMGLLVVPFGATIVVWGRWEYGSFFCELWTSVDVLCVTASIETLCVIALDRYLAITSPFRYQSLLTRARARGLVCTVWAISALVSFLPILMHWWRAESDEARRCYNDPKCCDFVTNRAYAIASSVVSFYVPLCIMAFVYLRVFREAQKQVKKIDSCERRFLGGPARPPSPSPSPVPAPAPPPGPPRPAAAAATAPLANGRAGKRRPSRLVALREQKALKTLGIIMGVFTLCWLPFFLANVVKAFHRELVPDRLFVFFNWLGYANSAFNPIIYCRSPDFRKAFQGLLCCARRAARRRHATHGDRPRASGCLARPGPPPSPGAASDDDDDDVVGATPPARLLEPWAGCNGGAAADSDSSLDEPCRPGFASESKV

[8] = target: ADRB2 (human) (UniProt P07550)
[9] = target: AGTRL1 (human) (UniProt P35414)
[10] = target: CCKAR (human) (UniProt P32238)
[11] = target: CCR1 (human) (UniProt P32246)
[12] = target: CCR2 (human) (UniProt P41597)
[13] = target: CCR3 (human) (UniProt P51677)
[14] = target: CCR4 (human) (UniProt P51679)
[15] = target: CCR7 (human) (UniProt P32248)
[16] = target: CHRM2 (human) (UniProt P08172)
[17] = target: CHRM4 (human) (UniProt P08173)
[18] = target: CRHR1 (human) (UniProt P34998)
[19] = target: CRHR2 (human) (UniProt Q13324)
[20] = target: CXCR3 (human) (UniProt P49682)
[21] = target: EBI2 (human) (UniProt P32249)
[22] = target: EDG6 (human) (UniProt O95977)
[23] = target: EDG7 (human) (UniProt Q9UBY5)
[24] = target: EDNRA (human) (UniProt P25101)
[25] = target: F2RL3 (human) (UniProt Q96RI0)
[26] = target: FFAR1 (human) (UniProt O14842)
[27] = target: FSHR (human) (UniProt P23945)
[28] = target: GALR1 (human) (UniProt P47211)
GALR1 (human), sequence (P47211 whole entry): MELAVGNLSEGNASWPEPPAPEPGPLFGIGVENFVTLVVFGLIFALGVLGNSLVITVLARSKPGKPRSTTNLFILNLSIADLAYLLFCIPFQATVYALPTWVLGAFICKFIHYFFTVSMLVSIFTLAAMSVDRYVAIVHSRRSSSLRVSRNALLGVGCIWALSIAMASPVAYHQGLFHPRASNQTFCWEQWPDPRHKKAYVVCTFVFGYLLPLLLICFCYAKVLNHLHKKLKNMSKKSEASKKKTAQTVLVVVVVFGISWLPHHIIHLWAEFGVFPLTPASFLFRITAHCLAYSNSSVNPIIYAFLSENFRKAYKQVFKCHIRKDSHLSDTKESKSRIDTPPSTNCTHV

[29] = target: GIPR (human) (UniProt P48546)
GIPR (human), sequence (P48546 22-466): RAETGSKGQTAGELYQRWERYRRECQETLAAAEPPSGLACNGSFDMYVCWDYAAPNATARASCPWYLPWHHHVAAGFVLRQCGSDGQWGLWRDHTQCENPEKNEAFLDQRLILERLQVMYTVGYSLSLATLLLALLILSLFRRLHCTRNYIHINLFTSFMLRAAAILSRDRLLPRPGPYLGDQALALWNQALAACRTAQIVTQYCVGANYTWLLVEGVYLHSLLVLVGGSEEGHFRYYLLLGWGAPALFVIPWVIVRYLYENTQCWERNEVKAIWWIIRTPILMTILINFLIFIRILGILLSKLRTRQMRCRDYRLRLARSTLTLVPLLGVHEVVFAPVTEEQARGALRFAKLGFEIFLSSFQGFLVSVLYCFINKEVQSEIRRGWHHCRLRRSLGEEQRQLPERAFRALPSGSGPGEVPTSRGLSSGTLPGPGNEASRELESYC

[30] = target: GLP1R (human) (UniProt P43220)
[31] = target: GPR103 (human) (UniProt Q96P65)
[32] = target: GPR109B (human) (UniProt P49019)
[33] = target: GPR35 (human) (UniProt Q9HC97)
[34] = target: GRPR (human) (UniProt P30550)
[35] = target: HRH2 (human) (UniProt P25021)
HRH2 (human), sequence (P25021 whole entry): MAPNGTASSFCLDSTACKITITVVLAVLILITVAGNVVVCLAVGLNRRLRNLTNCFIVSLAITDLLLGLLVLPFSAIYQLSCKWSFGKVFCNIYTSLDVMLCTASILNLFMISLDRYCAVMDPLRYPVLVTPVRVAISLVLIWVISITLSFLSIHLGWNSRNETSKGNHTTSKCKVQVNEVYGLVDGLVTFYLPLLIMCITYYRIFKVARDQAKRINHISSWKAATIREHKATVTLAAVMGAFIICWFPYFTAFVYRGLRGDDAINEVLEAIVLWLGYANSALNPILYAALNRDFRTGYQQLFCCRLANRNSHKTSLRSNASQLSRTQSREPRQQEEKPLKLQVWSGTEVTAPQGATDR

[36] = target: HRH3 (human) (UniProt Q9Y5N1)
[37] = target: HRH4 (human) (UniProt Q9H3N8)
HRH4 (human), sequence (Q9H3N8 whole entry): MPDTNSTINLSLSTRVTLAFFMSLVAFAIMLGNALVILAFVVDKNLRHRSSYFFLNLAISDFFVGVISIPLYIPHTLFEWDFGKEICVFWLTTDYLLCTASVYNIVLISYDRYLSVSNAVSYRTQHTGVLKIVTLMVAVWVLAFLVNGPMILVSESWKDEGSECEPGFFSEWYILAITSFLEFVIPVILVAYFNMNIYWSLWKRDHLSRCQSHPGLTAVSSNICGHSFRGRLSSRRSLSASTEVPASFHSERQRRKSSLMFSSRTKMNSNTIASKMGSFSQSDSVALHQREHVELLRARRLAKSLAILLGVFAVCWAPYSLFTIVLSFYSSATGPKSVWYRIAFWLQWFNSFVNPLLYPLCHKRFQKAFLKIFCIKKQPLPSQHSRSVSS

[38] = target: HTR1F (human) (UniProt P30939)
[39] = target: HTR2A (human) (UniProt P28223)
HTR2A (human), sequence (P28223 whole entry): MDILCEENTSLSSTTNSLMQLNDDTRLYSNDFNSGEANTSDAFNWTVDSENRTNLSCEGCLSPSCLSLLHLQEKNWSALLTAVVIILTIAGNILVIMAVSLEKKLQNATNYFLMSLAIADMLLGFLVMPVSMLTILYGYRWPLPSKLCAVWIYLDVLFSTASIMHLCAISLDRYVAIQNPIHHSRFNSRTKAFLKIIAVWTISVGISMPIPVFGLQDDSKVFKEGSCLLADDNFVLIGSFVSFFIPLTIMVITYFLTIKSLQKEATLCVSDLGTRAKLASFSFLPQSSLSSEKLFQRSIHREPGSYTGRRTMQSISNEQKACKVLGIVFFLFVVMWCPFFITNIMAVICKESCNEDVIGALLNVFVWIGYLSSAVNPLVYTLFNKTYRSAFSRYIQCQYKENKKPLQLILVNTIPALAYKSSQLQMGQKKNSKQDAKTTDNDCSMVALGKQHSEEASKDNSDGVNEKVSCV

[40] = target: HTR2C (human) (UniProt P28335)
[41] = target: LHCGR (human) (UniProt P22888)
[42] = target: LTB4R (human) (UniProt Q15722)
[43] = target: MRGPRX1 (human) (UniProt Q96LB2)
MRGPRX1 (human), sequence (Q96LB2 whole entry): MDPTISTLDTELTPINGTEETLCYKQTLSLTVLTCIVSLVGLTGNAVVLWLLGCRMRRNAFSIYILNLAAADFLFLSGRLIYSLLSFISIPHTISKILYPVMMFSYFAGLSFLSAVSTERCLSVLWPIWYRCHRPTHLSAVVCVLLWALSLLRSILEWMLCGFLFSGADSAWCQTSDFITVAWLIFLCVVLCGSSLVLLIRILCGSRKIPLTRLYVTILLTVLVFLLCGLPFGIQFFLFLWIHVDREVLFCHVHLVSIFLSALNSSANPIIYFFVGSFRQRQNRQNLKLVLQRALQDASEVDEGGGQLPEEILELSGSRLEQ

[44] = target: MRGPRX2 (human) (UniProt Q96LB1)
MRGPRX2 (human), sequence (Q96LB1 whole entry): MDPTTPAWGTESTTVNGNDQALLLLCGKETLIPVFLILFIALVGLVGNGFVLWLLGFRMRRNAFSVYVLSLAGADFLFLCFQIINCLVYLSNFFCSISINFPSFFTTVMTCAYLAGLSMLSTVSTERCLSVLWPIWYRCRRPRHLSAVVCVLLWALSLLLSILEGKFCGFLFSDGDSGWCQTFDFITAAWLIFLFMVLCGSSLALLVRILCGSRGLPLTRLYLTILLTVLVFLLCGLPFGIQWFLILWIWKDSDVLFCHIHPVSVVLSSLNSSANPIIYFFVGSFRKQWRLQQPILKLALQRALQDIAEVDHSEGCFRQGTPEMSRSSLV

[45] = target: NMBR (human) (UniProt P28336)
[46] = target: NMU1R (human) (UniProt Q9HB89)
[47] = target: NPBWR1 (human) (UniProt P48145)
NPBWR1 (human), sequence (P48145 whole entry): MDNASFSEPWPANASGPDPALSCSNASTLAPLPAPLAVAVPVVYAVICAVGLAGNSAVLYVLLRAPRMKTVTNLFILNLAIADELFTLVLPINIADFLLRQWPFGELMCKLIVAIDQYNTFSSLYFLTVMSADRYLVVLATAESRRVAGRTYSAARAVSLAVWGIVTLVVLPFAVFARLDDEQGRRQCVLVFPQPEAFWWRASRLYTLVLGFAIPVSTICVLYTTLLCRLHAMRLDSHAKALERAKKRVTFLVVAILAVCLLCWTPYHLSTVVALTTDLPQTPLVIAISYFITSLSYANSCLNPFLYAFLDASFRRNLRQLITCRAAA

[48] = target: NPY1R (human) (UniProt P25929)
[49] = target: NTSR1 (human) (UniProt P30989)
NTSR1 (human), sequence (P30989 whole entry): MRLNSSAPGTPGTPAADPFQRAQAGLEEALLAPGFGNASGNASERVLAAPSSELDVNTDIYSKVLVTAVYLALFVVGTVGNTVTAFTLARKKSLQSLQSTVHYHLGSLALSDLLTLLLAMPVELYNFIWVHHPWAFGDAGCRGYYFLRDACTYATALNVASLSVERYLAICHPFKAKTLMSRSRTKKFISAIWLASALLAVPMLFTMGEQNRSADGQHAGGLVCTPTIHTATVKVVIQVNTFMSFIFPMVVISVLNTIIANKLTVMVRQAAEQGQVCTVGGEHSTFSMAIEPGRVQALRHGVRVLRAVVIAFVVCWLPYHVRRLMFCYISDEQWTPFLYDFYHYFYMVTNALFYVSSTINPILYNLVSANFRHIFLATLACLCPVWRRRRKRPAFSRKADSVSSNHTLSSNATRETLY

[50] = target: OPRL1 (human) (UniProt P41146)
[51] = target: OPRM1 (human) (UniProt P35372)
[52] = target: OXTR (human) (UniProt P30559)
[53] = target: P2RY1 (human) (UniProt P47900)
P2RY1 (human), sequence (P47900 whole entry): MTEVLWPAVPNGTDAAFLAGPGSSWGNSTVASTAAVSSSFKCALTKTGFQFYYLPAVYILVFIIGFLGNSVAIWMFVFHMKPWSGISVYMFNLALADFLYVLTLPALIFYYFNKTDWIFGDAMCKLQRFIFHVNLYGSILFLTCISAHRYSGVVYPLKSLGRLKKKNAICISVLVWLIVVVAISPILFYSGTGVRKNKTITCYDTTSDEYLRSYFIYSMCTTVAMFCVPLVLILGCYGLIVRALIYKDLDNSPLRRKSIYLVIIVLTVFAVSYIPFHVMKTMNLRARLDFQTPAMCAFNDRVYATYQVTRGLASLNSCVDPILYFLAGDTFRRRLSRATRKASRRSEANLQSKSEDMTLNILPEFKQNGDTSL

[54] = target: PRLHR (human) (UniProt P49683)
[55] = target: RXFP3 (human) (UniProt Q9NSD7)
[56] = target: SCTR (human) (UniProt P47872)
[57] = target: TACR1 (human) (UniProt P25103)
TACR1 (human), sequence (P25103 whole entry): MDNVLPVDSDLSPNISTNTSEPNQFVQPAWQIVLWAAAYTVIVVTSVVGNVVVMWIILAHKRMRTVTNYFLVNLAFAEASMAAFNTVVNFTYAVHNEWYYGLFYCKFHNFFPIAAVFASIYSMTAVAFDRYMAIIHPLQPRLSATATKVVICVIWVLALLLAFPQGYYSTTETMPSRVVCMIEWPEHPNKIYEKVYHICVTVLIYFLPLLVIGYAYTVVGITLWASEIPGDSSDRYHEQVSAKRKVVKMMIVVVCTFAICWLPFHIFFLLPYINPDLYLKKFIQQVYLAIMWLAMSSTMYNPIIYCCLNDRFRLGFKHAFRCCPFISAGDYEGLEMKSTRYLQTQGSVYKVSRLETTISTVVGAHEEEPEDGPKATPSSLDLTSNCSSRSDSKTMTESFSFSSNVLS

[58] = target: TRHR (human) (UniProt P34981)
[59] = target: VIPR2 (human) (UniProt P41587)

B1: SEQ ID NO: 4 (peptide)
peptide: {DOTA}-[dF]RCF[dW]KTF[N(2-mercaptoethyl)Gly]-NH2
modifications: disulfide 3-9; also: Ga complex of DOTA
% Activity (agonist mode, 1 µM) [1]: -1%
% Activity (agonist mode, 1 µM) [2]: 3%
% Activity (agonist mode, 1 µM) [3]: 0%
% Activity (agonist mode, 1 µM) [4]: 0%
% Activity (agonist mode, 1 µM) [5]: -1%
% Activity (agonist mode, 1 µM) [6]: -8%
% Activity (agonist mode, 1 µM) [7]: 1%
% Activity (agonist mode, 1 µM) [8]: 0%
% Activity (agonist mode, 1 µM) [9]: -1%
% Activity (agonist mode, 1 µM) [10]: 0%
% Activity (agonist mode, 1 µM) [11]: 3%
% Activity (agonist mode, 1 µM) [12]: 1%
% Activity (agonist mode, 1 µM) [13]: 2%
% Activity (agonist mode, 1 µM) [14]: 0%
% Activity (agonist mode, 1 µM) [15]: 1%
% Activity (agonist mode, 1 µM) [16]: 0%
% Activity (agonist mode, 1 µM) [17]: -3%
% Activity (agonist mode, 1 µM) [18]: 0%
% Activity (agonist mode, 1 µM) [19]: 0%
% Activity (agonist mode, 1 µM) [20]: -1%
% Activity (agonist mode, 1 µM) [21]: -1%
% Activity (agonist mode, 1 µM) [22]: 10%
% Activity (agonist mode, 1 µM) [23]: 0%
% Activity (agonist mode, 1 µM) [24]: -1%
% Activity (agonist mode, 1 µM) [25]: 2%
% Activity (agonist mode, 1 µM) [26]: -4%
% Activity (agonist mode, 1 µM) [27]: 3%
% Activity (agonist mode, 1 µM) [28]: 2%
% Activity (agonist mode, 1 µM) [29]: -2%
% Activity (agonist mode, 1 µM) [30]: 0%
% Activity (agonist mode, 1 µM) [31]: 4%
% Activity (agonist mode, 1 µM) [32]: -3%
% Activity (agonist mode, 1 µM) [33]: 1%
% Activity (agonist mode, 1 µM) [34]: 0%
% Activity (agonist mode, 1 µM) [35]: -4%
% Activity (agonist mode, 1 µM) [36]: -2%
% Activity (agonist mode, 1 µM) [37]: -2%
% Activity (agonist mode, 1 µM) [38]: 0%
% Activity (agonist mode, 1 µM) [39]: -1%
% Activity (agonist mode, 1 µM) [40]: 0%
% Activity (agonist mode, 1 µM) [41]: 1%
% Activity (agonist mode, 1 µM) [42]: -1%
% Activity (agonist mode, 1 µM) [43]: 0%
% Activity (agonist mode, 1 µM) [44]: 1%
% Activity (agonist mode, 1 µM) [45]: 1%
% Activity (agonist mode, 1 µM) [46]: 1%
% Activity (agonist mode, 1 µM) [47]: 2%
% Activity (agonist mode, 1 µM) [48]: -5%
% Activity (agonist mode, 1 µM) [49]: 3%
% Activity (agonist mode, 1 µM) [50]: -3%
% Activity (agonist mode, 1 µM) [51]: 1%
% Activity (agonist mode, 1 µM) [52]: 0%
% Activity (agonist mode, 1 µM) [53]: -2%
% Activity (agonist mode, 1 µM) [54]: 1%
% Activity (agonist mode, 1 µM) [55]: -3%
% Activity (agonist mode, 1 µM) [56]: 0%
% Activity (agonist mode, 1 µM) [57]: 0%
% Activity (agonist mode, 1 µM) [58]: 3%
% Activity (agonist mode, 1 µM) [59]: -1%
